“And” between values parts separate entries of the source, which are not always exact repeats. Identical values can stand only once.
How the values were obtained:
[1] = target: recombinant Ser 255 mutation FGF2 (UniProt P09038); experiment: gel electrophoresis under non-denaturing conditions; recombinant FGF2 under non-denaturing conditions, compared with denaturation at 95 °C
[2] = target: recombinant wild-type FGF2 (UniProt P09038); experiment: as above

Substance | stoichiometry N [1] | stoichiometry N [2]
recombinant Ser 255 mutation FGF2 (from UniProt P09038 1-288) (natural protein) | 2 and 4 | 
recombinant wild-type FGF2 (from UniProt P09038 1-288) (natural protein) |  | 2 and 4

Reference: paper PMC12460815
